Measurements reported in patent US20130302375A1, “MODULATION OF ANTIGEN IMMUNOGENICITY BY ADDITION OF EPITOPES RECOGNIZED BY NKT CELLS” (IMNATE SARL, priority 2010, published 2013).
Where a chain is given by its changes, count along the chain named.

B1: Der p 2 of SEQ ID8: Der p 2 with the CD1d binding motif FAALAAF added at the carboxyterminal end (protein, listed as Dermatophagoides pteronyssinus)
chain: DQVDVKDCANHEIKKVLVPGCHGSEPCIIHRGKPFQLEAVFEANQNSKTAKIEIKASIDGLEVDVPGIDPNACHYMKCPLVKGQQYDIKYTWNVPKIAPKSENVVVTAKVMGDDGVLACAIATHAKIRDFAALAAF
B2: ova of SEQ ID4: ovalbumin with H22 and K187 mutated to F, generating new CD1d binding motifs (protein, listed as Gallus sp.)
chain: MGSIGAASMEFCFDVFKELKVFHANENIFYCPIAIMSALAMVYLGAKDSTRTQINKVVRFDKLPGFGDSIEAQCGTSVNVHSSLRDILNQITKPNDVYSFSLASRLYAEERYPILPEYLQCVKELYRGGLEPINFQTAADQARELINSWVESQTNGIIRNVLQPSSVDSQTAMVLVNAIVFKGLWEFTFKDEDTQAMPFRVTEQESKPVQMMYQIGLFRVASMASEKMKILELPFASGTMSMLVLLPDEVSGLEQLESIINFEKLTEWTSSNVMEERKIKVYLPRMKMEEKYNLTSVLMAMGITDVFSSSANLSGISSAESLKISQAVHAAHAEINEAGREVVGSAEAGVDAASVSEEFRADHPFLFCIKHIATNAVLFFGRCVSP
B3: ova of SEQ ID3: ovalbumin (chicken) in natural sequence (protein, listed as Gallus sp.)
chain: B2 chain with F22H, F187K

Columns and labels:
[1] = tested on: class II restricted CD4+ T cells; assay: Proliferation of CD4+ T cells from immunized mice cultured with dendritic cells from CD1d KO mice; format: cell-based, C57BL/6 mice; settings: 10^6 cells/well with dendritic cells from syngeneic CD1d KO mice
Description: Further, CD4+ T cells were prepared from the spleen of each mouse from the 2 groups, using magnetic bead sorting. Such cells (10^6 cells/well) were cultured with dendritic cells prepared from syngeneic CD1d KO mice. Such cells can only activate class II restricted CD4+ T cells. It is observed that cells obtained from mice immunized with Der p 2 of SEQ ID8 proliferate with a stimulation index 4-fold higher than cells obtained from mice immunized with native Der p 2 (SEQ ID7).

anti-Der p 2 antibodies = assay: Specific anti-Der p 2 antibodies by direct binding ELISA after immunization; format: in vivo, C57BL/6 mice; settings: 50 μg protein in alum subcutaneously 4 times at 10 days intervals
Description: Two groups of C57BL/6 mice (H-2b) were immunized with either native Der p 2 (SEQ ID7) or native Der p 2 wherein a CD1d binding motif had been added (SEQ ID8), using 50 μg of protein in alum injected subcutaneously 4 times at 10 days intervals. Mice were then bled and the concentration of specific anti-Der p 2 antibodies was tested by direct binding ELISA. It is observed that the concentration of antibodies is 10-fold higher in the group of mice immunized with Der p 2 of SEQ ID8.

EG7 tumor cells = assay: EG7 tumor growth in preimmunized mice; format: in vivo; settings: mice preimmunized subcutaneously in alum on 4 occasions, then engrafted with 10^6 EG7 tumor cells in the flank
Description: Immunization of mice with ova of SEQ ID4 was carried out using […] of ova in alum administered subcutaneously on 4 occasions separated by an interval of 10 days. A control group was immunized with ova in natural sequence (SEQ ID3). All mice were then engrafted with 10^6 EG7 tumor cells injected in the flank and the growth of the tumor was followed over time.

EG7 cells = assay: In vitro killing of EG7 cells by NKT cells from immunized mice (Annexin V / 7-AAD); format: cell-based; settings: 18 h at 37° C. with NKT cells from immunized mice, ratios 1/1 to 1/5 (EG7 versus NKT)
Description: In vitro killing of EG7 cells was evaluated using NKT cells prepared from the spleen using magnetic bead sorting. The NKT cells were first stimulated for 4 h in vitro with antigen-presenting cells loaded with ova of SEQ ID4. EG7 cells were labeled at membrane level with 1 μM DiOC18 (3,3′-dioctadecycloxacarbocyanine perchlorate from Invitrogen). EG7 cells (1×10^5 per well) were then cultured for 18 h at 37° C. in the presence of NKT cells obtained from each one of the 2 mouse groups, using ratios of 1/1 to 1/5 (EG7 cells versus NKT cells). After 18 h, cells were harvested and stained for Annexin V and 7-AAD following manufacturer's instructions (Apoptosis Detection kit; BD Biosciences) and analyzed on a FACSCantoII flow cytometer (BD Biosciences).

Row | Molecule | stimulation index of CD4+ T cell proliferation, versus cells from mice immunized with native Der p 2 (SEQ ID7) [1] [fold] | concentration of specific anti-Der p 2 antibodies, versus mice immunized with native Der p 2 (SEQ ID7) (anti-Der p 2 antibodies) [fold] | tumor rejection (EG7 tumor cells) | apoptosis of EG7 cells (EG7 cells)
1 | B1 | 4 | 10 |  | 
2 | B2 |  |  | rejected the tumor | induced into apoptosis
3 | B3 |  |  | did not | did not induce a significant degree of tumor cell apoptosis
